Data reported in patent publication US20230220021A1 (UNIVERSITY OF COPENHAGEN, published 2023).
[ ]: non-standard residue; d: D form.

The binders below were run against T1, (7× His)-PSD-95-PDZ2 wild type (UniProt P78352 160-246) (assay: FP competition).
T1 construct: domain: PDZ2; recombinant from E. coli; also called PSD-95-PDZ2 WT; not shown: 7x His tag
T1 sequence (P78352 160-246): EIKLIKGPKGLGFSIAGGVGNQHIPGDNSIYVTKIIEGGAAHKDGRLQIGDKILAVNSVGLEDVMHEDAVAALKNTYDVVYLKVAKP

Binder | Ki | Relative Ki (Ki mut/Ki WT)
cyclo(THKETTFTGDGTPKTIRVTQ[dP]GQ) (SMILES CC[C@H](C)[C@@H]1NC(=O)[C@H]([C@@H](C)O)NC(=O)[C@H](CCCCN)NC(=O)[C@@H]2CCCN2C(=O)[C@H]([C@@H](C)O)NC(=O)CNC(=O)[C@H](CC(=O)O)NC(=O)CNC(=O)[C@H]([C@@H](C)O)NC(=O)[C@H](Cc2ccccc2)NC(=O)[C@H]([C@@H](C)O)NC(=O)[C@H]([C@@H](C)O)NC(=O)[C@H](CCC(=O)O)NC(=O)[C@H](CCCCN)NC(=O)[C@H](Cc2c[nH]cn2)NC(=O)[C@H]([C@@H](C)O)NC(=O)[C@H](CCC(N)=O)NC(=O)CNC(=O)[C@H]2CCCN2C(=O)[C@H](CCC(N)=O)NC(=O)[C@H]([C@@H](C)O)NC(=O)[C@H](C(C)C)NC(=O)[C@H](CCCNC(=N)N)NC1=O) [cyclic nNOS β-hairpin peptide L107K] | 1.2 µM | 0.8
cyclo(GHLETTFTGDGTPKTIRVTQ[dP]GQ) (SMILES CC[C@H](C)[C@@H]1NC(=O)[C@H]([C@@H](C)O)NC(=O)[C@H](CCCCN)NC(=O)[C@@H]2CCCN2C(=O)[C@H]([C@@H](C)O)NC(=O)CNC(=O)[C@H](CC(=O)O)NC(=O)CNC(=O)[C@H]([C@@H](C)O)NC(=O)[C@H](Cc2ccccc2)NC(=O)[C@H]([C@@H](C)O)NC(=O)[C@H]([C@@H](C)O)NC(=O)[C@H](CCC(=O)O)NC(=O)[C@H](CC(C)C)NC(=O)[C@H](Cc2c[nH]cn2)NC(=O)CNC(=O)[C@H](CCC(N)=O)NC(=O)CNC(=O)[C@H]2CCCN2C(=O)[C@H](CCC(N)=O)NC(=O)[C@H]([C@@H](C)O)NC(=O)[C@H](C(C)C)NC(=O)[C@H](CCCNC(=N)N)NC1=O) [cyclic nNOS β-hairpin peptide T105G] | 4.5 µM | 3
cyclo(THLESTFTGDGTPKTIRVTQ[dP]GQ) (SMILES CC[C@H](C)[C@@H]1NC(=O)[C@H]([C@@H](C)O)NC(=O)[C@H](CCCCN)NC(=O)[C@@H]2CCCN2C(=O)[C@H]([C@@H](C)O)NC(=O)CNC(=O)[C@H](CC(=O)O)NC(=O)CNC(=O)[C@H]([C@@H](C)O)NC(=O)[C@H](Cc2ccccc2)NC(=O)[C@H]([C@@H](C)O)NC(=O)[C@H](CO)NC(=O)[C@H](CCC(=O)O)NC(=O)[C@H](CC(C)C)NC(=O)[C@H](Cc2c[nH]cn2)NC(=O)[C@H]([C@@H](C)O)NC(=O)[C@H](CCC(N)=O)NC(=O)CNC(=O)[C@H]2CCCN2C(=O)[C@H](CCC(N)=O)NC(=O)[C@H]([C@@H](C)O)NC(=O)[C@H](C(C)C)NC(=O)[C@H](CCCNC(=N)N)NC1=O) [cyclic nNOS β-hairpin peptide T109S] | 24.5 µM | 2.51
cyclo(THLETTFDGDGTPKTIRVTQ[dP]GQ) (SMILES CC[C@H](C)[C@@H]1NC(=O)[C@H]([C@@H](C)O)NC(=O)[C@H](CCCCN)NC(=O)[C@@H]2CCCN2C(=O)[C@H]([C@@H](C)O)NC(=O)CNC(=O)[C@H](CC(=O)O)NC(=O)CNC(=O)[C@H](CC(=O)O)NC(=O)[C@H](Cc2ccccc2)NC(=O)[C@H]([C@@H](C)O)NC(=O)[C@H]([C@@H](C)O)NC(=O)[C@H](CCC(=O)O)NC(=O)[C@H](CC(C)C)NC(=O)[C@H](Cc2c[nH]cn2)NC(=O)[C@H]([C@@H](C)O)NC(=O)[C@H](CCC(N)=O)NC(=O)CNC(=O)[C@H]2CCCN2C(=O)[C@H](CCC(N)=O)NC(=O)[C@H]([C@@H](C)O)NC(=O)[C@H](C(C)C)NC(=O)[C@H](CCCNC(=N)N)NC1=O) [cyclic nNOS β-hairpin peptide T112D] | 0.95 µM | 0.63
cyclo(THLETTFTGDGCPKTIRVTQ[dP]GQ) (SMILES CC[C@H](C)[C@@H]1NC(=O)[C@H]([C@@H](C)O)NC(=O)[C@H](CCCCN)NC(=O)[C@@H]2CCCN2C(=O)[C@H](CS)NC(=O)CNC(=O)[C@H](CC(=O)O)NC(=O)CNC(=O)[C@H]([C@@H](C)O)NC(=O)[C@H](Cc2ccccc2)NC(=O)[C@H]([C@@H](C)O)NC(=O)[C@H]([C@@H](C)O)NC(=O)[C@H](CCC(=O)O)NC(=O)[C@H](CC(C)C)NC(=O)[C@H](Cc2c[nH]cn2)NC(=O)[C@H]([C@@H](C)O)NC(=O)[C@H](CCC(N)=O)NC(=O)CNC(=O)[C@H]2CCCN2C(=O)[C@H](CCC(N)=O)NC(=O)[C@H]([C@@H](C)O)NC(=O)[C@H](C(C)C)NC(=O)[C@H](CCCNC(=N)N)NC1=O) [cyclic nNOS β-hairpin peptide T116C] | 1.36 µM | 0.91
cyclo(THLETTFTGDGNPKTIRVTQ[dP]GQ) (SMILES CC[C@H](C)[C@@H]1NC(=O)[C@H]([C@@H](C)O)NC(=O)[C@H](CCCCN)NC(=O)[C@@H]2CCCN2C(=O)[C@H](CC(N)=O)NC(=O)CNC(=O)[C@H](CC(=O)O)NC(=O)CNC(=O)[C@H]([C@@H](C)O)NC(=O)[C@H](Cc2ccccc2)NC(=O)[C@H]([C@@H](C)O)NC(=O)[C@H]([C@@H](C)O)NC(=O)[C@H](CCC(=O)O)NC(=O)[C@H](CC(C)C)NC(=O)[C@H](Cc2c[nH]cn2)NC(=O)[C@H]([C@@H](C)O)NC(=O)[C@H](CCC(N)=O)NC(=O)CNC(=O)[C@H]2CCCN2C(=O)[C@H](CCC(N)=O)NC(=O)[C@H]([C@@H](C)O)NC(=O)[C@H](C(C)C)NC(=O)[C@H](CCCNC(=N)N)NC1=O) [cyclic nNOS β-hairpin peptide T116N] | 0.51 µM | 0.34
cyclo(THLETTFTGDGPPKTIRVTQ[dP]GQ) (SMILES CC[C@H](C)[C@@H]1NC(=O)[C@H]([C@@H](C)O)NC(=O)[C@H](CCCCN)NC(=O)[C@@H]2CCCN2C(=O)[C@@H]2CCCN2C(=O)CNC(=O)[C@H](CC(=O)O)NC(=O)CNC(=O)[C@H]([C@@H](C)O)NC(=O)[C@H](Cc2ccccc2)NC(=O)[C@H]([C@@H](C)O)NC(=O)[C@H]([C@@H](C)O)NC(=O)[C@H](CCC(=O)O)NC(=O)[C@H](CC(C)C)NC(=O)[C@H](Cc2c[nH]cn2)NC(=O)[C@H]([C@@H](C)O)NC(=O)[C@H](CCC(N)=O)NC(=O)CNC(=O)[C@H]2CCCN2C(=O)[C@H](CCC(N)=O)NC(=O)[C@H]([C@@H](C)O)NC(=O)[C@H](C(C)C)NC(=O)[C@H](CCCNC(=N)N)NC1=O) [cyclic nNOS β-hairpin peptide T116P] | 1.16 µM | 0.77
cyclo(THLETTFTGDGWPKTIRVTQ[dP]GQ) (SMILES CC[C@H](C)[C@@H]1NC(=O)[C@H]([C@@H](C)O)NC(=O)[C@H](CCCCN)NC(=O)[C@@H]2CCCN2C(=O)[C@H](Cc2c[nH]c3ccccc23)NC(=O)CNC(=O)[C@H](CC(=O)O)NC(=O)CNC(=O)[C@H]([C@@H](C)O)NC(=O)[C@H](Cc2ccccc2)NC(=O)[C@H]([C@@H](C)O)NC(=O)[C@H]([C@@H](C)O)NC(=O)[C@H](CCC(=O)O)NC(=O)[C@H](CC(C)C)NC(=O)[C@H](Cc2c[nH]cn2)NC(=O)[C@H]([C@@H](C)O)NC(=O)[C@H](CCC(N)=O)NC(=O)CNC(=O)[C@H]2CCCN2C(=O)[C@H](CCC(N)=O)NC(=O)[C@H]([C@@H](C)O)NC(=O)[C@H](C(C)C)NC(=O)[C@H](CCCNC(=N)N)NC1=O) [cyclic nNOS β-hairpin peptide T116W] | 1.04 µM | 0.69
cyclo(THLETTFTGDGTPKNIRVTQ[dP]GQ) (SMILES CC[C@H](C)[C@@H]1NC(=O)[C@H](CC(N)=O)NC(=O)[C@H](CCCCN)NC(=O)[C@@H]2CCCN2C(=O)[C@H]([C@@H](C)O)NC(=O)CNC(=O)[C@H](CC(=O)O)NC(=O)CNC(=O)[C@H]([C@@H](C)O)NC(=O)[C@H](Cc2ccccc2)NC(=O)[C@H]([C@@H](C)O)NC(=O)[C@H]([C@@H](C)O)NC(=O)[C@H](CCC(=O)O)NC(=O)[C@H](CC(C)C)NC(=O)[C@H](Cc2c[nH]cn2)NC(=O)[C@H]([C@@H](C)O)NC(=O)[C@H](CCC(N)=O)NC(=O)CNC(=O)[C@H]2CCCN2C(=O)[C@H](CCC(N)=O)NC(=O)[C@H]([C@@H](C)O)NC(=O)[C@H](C(C)C)NC(=O)[C@H](CCCNC(=N)N)NC1=O) [cyclic nNOS β-hairpin peptide T119N] | 18.9 µM | 12.6
cyclo(THLETTFTGDGTPKSIRVTQ[dP]GQ) (SMILES CC[C@H](C)[C@@H]1NC(=O)[C@H](CO)NC(=O)[C@H](CCCCN)NC(=O)[C@@H]2CCCN2C(=O)[C@H]([C@@H](C)O)NC(=O)CNC(=O)[C@H](CC(=O)O)NC(=O)CNC(=O)[C@H]([C@@H](C)O)NC(=O)[C@H](Cc2ccccc2)NC(=O)[C@H]([C@@H](C)O)NC(=O)[C@H]([C@@H](C)O)NC(=O)[C@H](CCC(=O)O)NC(=O)[C@H](CC(C)C)NC(=O)[C@H](Cc2c[nH]cn2)NC(=O)[C@H]([C@@H](C)O)NC(=O)[C@H](CCC(N)=O)NC(=O)CNC(=O)[C@H]2CCCN2C(=O)[C@H](CCC(N)=O)NC(=O)[C@H]([C@@H](C)O)NC(=O)[C@H](C(C)C)NC(=O)[C@H](CCCNC(=N)N)NC1=O) [cyclic nNOS β-hairpin peptide T119S] | 7.19 µM | 4.79
cyclo(THLETTFTGDGTPKTIRVFQ[dP]GQ) (SMILES CC[C@H](C)[C@@H]1NC(=O)[C@H]([C@@H](C)O)NC(=O)[C@H](CCCCN)NC(=O)[C@@H]2CCCN2C(=O)[C@H]([C@@H](C)O)NC(=O)CNC(=O)[C@H](CC(=O)O)NC(=O)CNC(=O)[C@H]([C@@H](C)O)NC(=O)[C@H](Cc2ccccc2)NC(=O)[C@H]([C@@H](C)O)NC(=O)[C@H]([C@@H](C)O)NC(=O)[C@H](CCC(=O)O)NC(=O)[C@H](CC(C)C)NC(=O)[C@H](Cc2c[nH]cn2)NC(=O)[C@H]([C@@H](C)O)NC(=O)[C@H](CCC(N)=O)NC(=O)CNC(=O)[C@H]2CCCN2C(=O)[C@H](CCC(N)=O)NC(=O)[C@H](Cc2ccccc2)NC(=O)[C@H](C(C)C)NC(=O)[C@H](CCCNC(=N)N)NC1=O) [cyclic nNOS β-hairpin peptide T123F] | 1.58 µM | 1.05
